T1: human MICA*008 α3 domain with a C-terminal His8 (Homo sapiens, MICA*008)
T1 chain: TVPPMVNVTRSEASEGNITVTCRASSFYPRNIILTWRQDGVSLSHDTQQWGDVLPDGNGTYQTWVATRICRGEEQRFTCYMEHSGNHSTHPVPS


How the values were obtained:
[1] = differential scanning fluorimetry; settings: glycan gained; control: wild-type HER2 ECD alone or human IgG1 Fc alone
[2] = biological target: T2, human MICA*004 α3 domain with a C-terminal His8 (Homo sapiens, MICA*004, UniProt Q29983); assay: SPR
[3] = biological target: T1, human MICA*008 α3 domain with a …; assay: SPR
[4] = biological target: T3, human MICA*002 α3 domain with a C-terminal His8 (Homo sapiens, MICA*002, UniProt Q29983); assay: SPR
[5] = biological target: T4, human MICB*005 α3 domain with a C-terminal His8 (Homo sapiens, MICB*005, UniProt Q29980); assay: SPR
[6] = biological target: T2, human MICA*004 α3 domain with a …; assay: cell-based or functional assay
[7] = biological target: T1, human MICA*008 α3 domain with a …; assay: cell-based or functional assay
[8] = biological target: T3, human MICA*002 α3 domain with a …; assay: cell-based or functional assay
[9] = biological target: T4, human MICB*005 α3 domain with a …; assay: cell-based or functional assay

Molecule | Kd [2] [nM] | Kd [3] [nM] | Kd [4] [nM] | Kd [5] [nM] | EC50 of inhibition of MICA*004 shedding from the HCC1534 cell line [6] [µg/mL] | Max % inhibition of MICA*004 shedding from the HCC1534 cell line [6] [%] | EC50 of inhibition of MICA*008 shedding from the MEL-JUSO cell line [7] [µg/mL] | EC50 of inhibition of MICA*002 shedding from the PANC1 cell line [8] [µg/mL] | EC50 of inhibition of MICB*005 shedding from the HCC1534 cell line [9] [µg/mL] | Max % inhibition of MICB*005 shedding from the HCC1534 cell line [9] [%] | stability_or_folding [1]
HER2 ECD: V308N |  |  |  |  |  |  |  |  |  |  | no change
HER2 ECD: K333N |  |  |  |  |  |  |  |  |  |  | no change
HER2 ECD: S310N |  |  |  |  |  |  |  |  |  |  | no change
anti-MICA/B antibody 1D5 (hybridoma-derived mouse antibody) (antibody, V domains shown) VH: EIQLQQSGPELVKPGASVKVSCKASGYAFTSQNIYWVKQSHGKSLEWIGYIEPYNVVPMYNPKFKGKATLTVDKSSSSAYIHLNSLTSEDSAIYYCARSGSSNFDYWGQGTTLTVSS VL: EIILTQSPTTMAASPGEKITITCSASSSISSHYLHWYQQKSGFSPKLLIYRTSNLASGVPARFSGSGSGTSYSLTIGTMEAEDVATYYCQQGSSLPLTFGAGTKLEIK | 0.486 | 0.42 | 0.675 | 1.09 | 0.0136 | 65 | 0.0207 | 0.0341 | 0.0386 | 59 | 

Second part, led by results:

Kd [2] [nM] | Kd [3] [nM] | Kd [4] [nM] | Kd [5] [nM] | EC50 of inhibition of MICA*004 shedding from the HCC1534 cell line [6] [µg/mL] | Max % inhibition of MICA*004 shedding from the HCC1534 cell line [6] [%] | EC50 of inhibition of MICA*008 shedding from the MEL-JUSO cell line [7] [µg/mL] | EC50 of inhibition of MICA*002 shedding from the PANC1 cell line [8] [µg/mL] | EC50 of inhibition of MICB*005 shedding from the HCC1534 cell line [9] [µg/mL] | Max % inhibition of MICB*005 shedding from the HCC1534 cell line [9] [%] | Molecule | stability_or_folding [1]
1.55 | 0.94 | 0.499 | 0.968 | 0.599 | 56 | 0.794 | 0.418 | 0.0349 | 76 | anti-MICA/B antibody 13A9 (hybridoma-derived mouse antibody) (antibody, V domains shown) VH: QVQLQQSGAELVRPGTSVKVSCKASGYAFTNYLIEWVKQRPGQGLEWIGAINPGSGATNYNEKFKDKARLTADKSSNTAYLQFSSLTSDDSAVYFCARFLGNYFDNWGQGATLTVSS VL: DIQMTQSPASLSASVGETVTITCRASGNIHSYLAWYQQKQGKSPQLLVYYAETLADGVPSRFSGRGSGTQYSLKINSLQPEDFGSYFCQQFWTTPYTFGGGTKVEIK | 
8.42 |  | 2.96 | 5.75 |  |  |  |  | 0.0724 | 58 | anti-MICA/B antibody 6E1 (hybridoma-derived mouse antibody) (antibody, V domains shown) VH: QGQMQQSGAELVKPGASVKLSCKTSGFTFSDNYISWLKQKPGQSLEWIAWIYAGTGGSSYNQKFRDKAQLTVDTSSRTAYMQLSSLTTEDSAIYYCARHDYYGTSGAWFAYWGRGTLVTVSA VL: DVLMTQTPLSLPVSLGDQASISCRSSQHIVHSNENTYLEWYLQKPGQSPKLLIYKVSNRFSGVPDRFSGSGSGTDFTLKISRVEAEDLGVYYCFQGSHVPWTFGGGTKLEIK | 
